According to the supplement of paper PMC5998384:

Tests used:
HeLa Kyoto [1] = assay: thermal stability score vs G1/S (z-score of summed log2 fold changes over temperatures); higher = more thermally stable than in G1/S
HeLa Kyoto [2] = assay: solubility in G1/S (NP-40 vs SDS abundance) (log2 ratio); higher = more soluble; settings: cell cycle stage: G1/S
HeLa Kyoto [3] = assay: melting temperature (median over replicates), in situ; higher = more thermally stable
HeLa Kyoto [4] = assay: solubility change mitosis vs G1/S (difference of NP-40 vs SDS log2 ratios) (log2 ratio difference); higher = more soluble in mitosis
[5] = cell cycle stage: early G1 (4.5 h after nocodazole release)
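Wherever melting temperature (median over replicates), in situ is given: HeLa Kyoto cells synchronized by double thymidine or nocodazole block, proteins quantified by TMT10plex mass spectrometry, three independent biological replicates.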
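Wherever solubility change mitosis vs G1/S (difference of NP-40 vs SDS log2 ratios) is given: synchronized HeLa Kyoto cells (double thymidine block for G1/S, nocodazole release for mitosis), protein amounts in NP-40 versus SDS lysates quantified by mass spectrometry, three biological replicates.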
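Wherever solubility in G1/S (NP-40 vs SDS abundance) is given: HeLa Kyoto cells arrested at G1/S by double thymidine block, proteins quantified by TMT10plex mass spectrometry in mild NP-40 versus SDS extracts, three biological replicates.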
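Wherever thermal stability score vs G1/S (z-score of summed log2 fold changes over temperatures) is given: synchronized HeLa Kyoto cells, proteins quantified by TMT10plex mass spectrometry, three biological replicates, mitosis taken 0.5 h after nocodazole release, G1/S directly after double thymidine block.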

Sequence | thermal stability score (HeLa Kyoto [1]; [5]) | thermal stability score (HeLa Kyoto [1]; cell cycle stage: mitosis) | solubility in G1/S (log2) (HeLa Kyoto [2]) | melting temperature (HeLa Kyoto [3]; cell cycle stage: G1/S) [°C] | melting temperature (HeLa Kyoto [3]; cell cycle stage: mitosis) [°C] | solubility change mitosis (log2) (HeLa Kyoto [4])
MSSRIARALALVVTLLHLTRLALSTCPAACHCPLEAPKCAPGVGLVRDGCGCCKVCAKQLNEDCSKTQPCDHTKGLECNFGASSTALKGICRAQSEGRPCEYNSRIYQNGESFQPNCKHQCTCIDGAVGCIPLCPQELSLPNLGCPNPRLVKVTGQCCEEWVCDEDSIKDPMEDQDGLLGKELGFDASEVELTRNNELIAVGKGSSLKRLPVFGMEPRILYNPLQGQKCIVQTTSWSQCSKTCGTGISTRVTNDNPECRLVKETRICEVRPCGQPVYSSLKKGKKCSKTKKSPEPVRFTYAGCLSVKKYRPKYCGSCVDGRCCTPQLTRTVKMRFRCEDGETFSKNVMMIQSCKCNYNCPHANEAAFPFYRLFNDIHKFRD [CYR61] | 5.63 | 3.33 | -0.183 | 52.8 | 54.1 | -0.133
MASRGATRPNGPNTGNKICQFKLVLLGESAVGKSSLVLRFVKGQFHEFQESTIGAAFLTQTVCLDDTTVKFEIWDTAGQERYHSLAPMYYRGAQAAIVVYDITNEESFARAKNWVKELQRQASPNIVIALSGNKADLANKRAVDFQEAQSYADDNSLLFMETSAKTSMNVNEIFMAIAKKLPKNEPQNPGANSARGRGVDLTEPTQPTRNQCCSN [RAB5A] | -1.4 | -3.38 | 0.00572 | 57.3 | 56.4 | 0.0351
MVADPPRDSKGLAAAEPTANGGLALASIEDQGAAAGGYCGSRDQVRRCLRANLLVLLTVVAVVAGVALGLGVSGAGGALALGPERLSAFVFPGELLLRLLRMIILPLVVCSLIGGAASLDPGALGRLGAWALLFFLVTTLLASALGVGLALALQPGAASAAINASVGAAGSAENAPSKEVLDSFLDLARNIFPSNLVSAAFRSYSTTYEERNITGTRVKVPVGQEVEGMNILGLVVFAIVFGVALRKLGPEGELLIRFFNSFNEATMVLVSWIMWYAPVGIMFLVAGKIVEMEDVGLLFARLGKYILCCLLGHAIHGLLVLPLIYFLFTRKNPYRFLWGIVTPLATAFGTSSSSATLPLMMKCVEENNGVAKHISRFILPIGATVNMDGAALFQCVAAVFIAQLSQQSLDFVKIITILVTATASSVGAAGIPAGGVLTLAIILEAVNLPVDHISLILAVDWLVDRSCTVLNVEGDALGAGLLQNYVDRTESRSTEPELIQVKSELPLDPLPVPTEEGNPLLKHYRGPAGDATVASEKESVM [SLC1A5] | -1.47 | -1.94 | 0.196 |  | 65.7 | -0.123
MILIPRMLLVLFLLLPILSSAKAQVNPAICRYPLGMSGGQIPDEDITASSQWSESTAAKYGRLDSEEGDGAWCPEIPVEPDDLKEFLQIDLHTLHFITLVGTQGRHAGGHGIEFAPMYKINYSRDGTRWISWRNRHGKQVLDGNSNPYDIFLKDLEPPIVARFVRFIPVTDHSMNVCMRVELYGCVWLDGLVSYNAPAGQQFVLPGGSIIYLNDSVYDGAVGYSMTEGLGQLTDGVSGLDDFTQTHEYHVWPGYDYVGWRNESATNGYIEIMFEFDRIRNFTTMKVHCNNMFAKGVKIFKEVQCYFRSEASEWEPNAISFPLVLDDVNPSARFVTVPLHHRMASAIKCQYHFADTWMMFSEITFQSDAAMYNNSEALPTSPMAPTTYDPMLKVDDSNTRILIGCLVAIIFILLAIIVIILWRQFWQKMLEKASRRMLDDEMTVSLSLPSDSSMFNNNRSSSPSEQGSNSTYDRIFPLRPDYQEPSRLIRKLPEFAPGEEESGCSGVVKPVQPSGPEGVPHYAEADIVNLQGVTGGNTYSVPAVTMDLLSGKDVAVEEFPRKLLTFKEKLGEGQFGEVHLCEVEGMEKFKDKDFALDVSANQPVLVAVKMLRADANKNARNDFLKEIKIMSRLKDPNIIHLLAVCITDDPLCMITEYMENGDLNQFLSRHEPPNSSSSDVRTVSYTNLKFMATQIASGMKYLSSLNFVHRDLATRNCLVGKNYTIKIADFGMSRNLYSGDYYRIQGRAVLPIRWMSWESILLGKFTTASDVWAFGVTLWETFTFCQEQPYSQLSDEQVIENTGEFFRDQGRQTYLPQPAICPDSVYKLMLSCWRRDTKNRPSFQEIHLLLLQQGDE [DDR2] | 0.527 | -1.72 | -0.114 | 50.8 | 51 | 0.0106
MEEIYAKFVSQKISKTRWRPLPPGSLQTAETFATGSWDNEENYISLWSIGDFGNLDSDGGFEGDHQLLCDIRHHGDVMDLQFFDQERIVAASSTGCVTVFLHHPNNQTLSVNQQWTTAHYHTGPGSPSYSSAPCTGVVCNNPEIVTVGEDGRINLFRADHKEAVRTIDNADSSTLHAVTFLRTPEILTVNSIGQLKIWDFRQQGNEPSQILSLTGDRVPLHCVDRHPNQQHVVATGGQDGMLSIWDVRQGTMPVSLLKAHEAEMWEVHFHPSNPEHLFTCSEDGSLWHWDASTDVPEKSSLFHQGGRSSTFLSHSISNQANVHQSVISSWLSTDPAKDRIEITSLLPSRSLSVNTLDVLGPCLVCGTDAEAIYVTRHLFS [NUP43] | -1.7 | -3.31 | -0.175 | 53.1 | 53.1 | 0.0611
MNGKRPAEPGPARVGKKGKKEVMAEFSDAVTEETLKKQVAEAWSRRTPFSHEVIVMDMDPFLHCVIPNFIQSQDFLEGLQKELMNLDFHEKYNDLYKFQQSDDLKKRREPHISTLRKILFEDFRSWLSDISKIDLESTIDMSCAKYEFTDALLCHDDELEGRRIAFILYLVPPWDRSMGGTLDLYSIDEHFQPKQIVKSLIPSWNKLVFFEVSPVSFHQVSEVLSEEKSRLSISGWFHGPSLTRPPNYFEPPIPRSPHIPQDHEILYDWINPTYLDMDYQVQIQEEFEESSEILLKEFLKPEKFTKVCEALEHGHVEWSSRGPPNKRFYEKAEESKLPEILKECMKLFRSEALFLLLSNFTGLKLHFLAPSEEDEMNDKKEAETTDITEEGTSHSPPEPENNQMAISNNSQQSNEQTDPEPEENETKKESSVPMCQGELRHWKTGHYTLIHDHSKAEFALDLILYCGCEGWEPEYGGFTSYIAKGEDEELLTVNPESNSLALVYRDRETLKFVKHINHRSLEQKKTFPNRTGFWDFSFIYYE [OGFOD1] | 1.93 | 0.186 | -0.0197 | 53.1 | 53.6 | -0.151
MAVSESQLKKMVSKYKYRDLTVRETVNVITLYKDLKPVLDSYVFNDGSSRELMNLTGTIPVPYRGNTYNIPICLWLLDTYPYNPPICFVKPTSSMTIKTGKHVDANGKIYLPYLHEWKHPQSDLLGLIQVMIVVFGDEPPVFSRPISASYPPYQATGPPNTSYMPGMPGGISPYPSGYPPNPSGYPGCPYPPGGPYPATTSSQYPSQPPVTTVGPSRDGTISEDTIRASLISAVSDKLRWRMKEEMDRAQAELNALKRTEEDLKKGHQKLEEMVTRLDQEVAEVDKNIELLKKKDEELSSALEKMENQSENNDIDEVIIPTAPLYKQILNLYAEENAIEDTIFYLGEALRRGVIDLDVFLKHVRLLSRKQFQLRALMQKARKTAGLSDLY [TSG101] | -0.385 | -0.589 | 0.617 | 50.7 | 50.2 | -0.0618
